The values that follow come from paper PMC11024197.

Several values for one entry are separate records, joined by “and”; a condition that tells them apart may be missing. Equal entries are not always repeated.

Experiment [1] has as its target PEX14 NTD (1-104) (human) (UniProt O75381). Briefly: ITC; PEX14 NTD (1-104) (20-60 µM) in the cell, titrated with PEX5 W peptides or W0 (0.4-0.6 mM), PEX13 FxxxF (0.46 mM) or PEX13 SH3-CTR (1 mM); 25 °C; 20 mM Tris pH 7.5, 50 mM NaCl; one-site binding model; PEX14 concentration corrected with the fit; triplicates. (ITC needs no label: the signal is the heat of the interaction.)

Experiment [2] has the same target. As to the kind of experiment: ITC; PEX14 (1-104) (20-60 uM, concentration corrected with the fit) in the cell, peptide or fragment in the syringe; 25 °C, 20 mM Tris pH 7.5, 50 mM NaCl; one-site binding model; single runs of triplicates and their averages.
The target is the same in experiment [3]. As to the kind of experiment: ITC; PEX14 (1-104) at 20-60 µM titrated with PEX5 W peptides or W0 (0.4-0.6 mM), PEX13 FxxxF (0.46 mM) or PEX13 SH3-CTR (1 mM); 25 °C; 20 mM Tris pH 7.5, 50 mM NaCl; one-site model; PEX14 concentration corrected with the fit; triplicates.
For experiment [4], the target named is PEX13 SH3 domain (human) (UniProt Q92968). Briefly: ITC; PEX13 SH3 at 35-48 µM titrated with PEX5 15-mer peptides or PEX5 1-76 (0.6-0.7 mM) or PEX13 350-403 (0.9-1 mM); 25 °C; 20 mM Tris pH 7.5, 50 mM NaCl; one-site model; triplicates.
For experiment [5] the target is unchanged. Briefly: ITC; PEX13 SH3 (35-48 uM) in the cell, peptide or fragment in the syringe; 25 °C, 20 mM Tris pH 7.5, 50 mM NaCl; one-site binding model; single runs of triplicates and their averages.

Chain of PEX14 NTD (1-104) (human) (O75381 1-104): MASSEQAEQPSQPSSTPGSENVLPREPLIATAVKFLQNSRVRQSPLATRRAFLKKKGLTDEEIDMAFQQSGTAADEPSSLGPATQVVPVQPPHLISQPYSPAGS

With PEX5 W4 peptide, the stoichiometry N in experiment [1] worked out at 1; in experiment [2], 1 sites.
“PEX13 FxxxF peptide (residues 350-403) (from UniProt Q92968 350-403) (domain or fragment)”: in experiment [3], the Kd was 2.8 µM and the stoichiometry N stood at 1. Further, the Kd with PEX13 SH3 domain (human) [4] worked out at 27 µM.
In the case of “PEX13 FF/W4 (FxxxF fragment with the core motif FESVF replaced by WYDEY) (domain or fragment)”, in the experiment with PEX13 SH3 domain (human) [5], the Kd is 6.48 µM and 6.11 µM and 6.59 µM; the stoichiometry N came to 1 sites.
Take PEX5 W3 peptide: the stoichiometry N in experiment [1] was 1; in experiment [2], 1 sites.
In turn, “PEX13 FF/W4 (FxxxF core motif FESVF replaced with WYDEY), as titrated onto the SH3 domain (domain or fragment)” yielded a Kd with PEX13 SH3 domain (human) [4] of 6 µM.
With PEX5 W2 peptide, the stoichiometry N was found to be 1 in experiment [1] and 1 sites in experiment [2].
As to “PEX13 SH3-CTR (residues 261-403) (from UniProt Q92968 261-403) (domain or fragment)”, in experiment [3], the Kd is 5.4 µM and the stoichiometry N amounted to 1.

What is called stoichiometry N is a count of units in the complex or per binding partner. As a reminder, the Kd is the equilibrium constant for the complex coming apart. A lower Kd goes with a tighter complex.
